How the values were obtained:
[1] = system: COLO 205 tumour cells xenografted into nude mice; assay: In vivo COLO 205 xenograft study; design: species or system athymic NMRI nude mice; settings: 50 mg/kg 5FU alone, once weekly, FIG. 7
Experimental: Female athymic NMRI nude mice, 6-8 weeks old, are inoculated subcutaneously in the right flank with the COLO 205 human colon tumour-derived cell line (ATCC #CCL-222) (5×10^6 in 100 μl Ringer solution). Tumour cell growth is assessed by measuring tumour volume three times per week using calipers and the formula: π/6× larger diameter×(smaller diameter)^2. Treatment is administered intravenously to groups of ten mice and commenced when tumours have developed to a size of between 130 to 270 mm^3. The treatment schedule consists of two times weekly intravenous infusions of vehicle and antibody 40186 at a dose of 25 mg/kg for two treatment cycles. In combinations of antibody with 5FU, a dose of 50 mg/kg 5FU is administered weekly. The study is terminated when tumours reached an average size of 1500 mm^3. All animal experiments are performed according to the legal requirements in Austria as well as guidelines of the American Association for Laboratory Animal Science (AALAS).

[2] = cynomolgus monkeys; cited from earlier work
[3] = humans; cited from earlier work
human IGF-1 = molecular target: T1, human IGF-1 (Homo sapiens, UniProt P05019); assay: ELISA binding titration of IgG1 antibodies; settings: FIG. 1A
T1 construct: Insulin-like growth factor-1 (IGF-1; a 70 amino-acid polypeptide)
Experimental: (§1) ELISA screening for IGF-1 positive Fab clones is performed by coating Maxisorb 384-well plates overnight at 4° C. with 5 μg/ml recombinant human IGF-1 (Gropep) in 1× coating buffer (Gibco). Wells are washed with 1×TBS-T and blocked with 1× Blocking Buffer (Gibco) for 1 h at room temperature. Bacterial lysates containing antibody Fab fragments are added for 1.5 hr at room temperature, then washed five times with 1×TBS-T and detected with Alkaline Phosphatase-conjugated Affini Pure Goat Anti-HumanIgG F(ab′)2. Fragment Specific Mab (Dianova) at a dilution of 1:10 000 and visualized with Attophos Substrate (Roche). Fluorescence readings are performed on Tecan fluorescence reader at excitation 430 nm and emission 535 nm.
(§2) Cross-reactivity to recombinant human IGF-1, murine IGF-1, murine IGF-2 (R&D Systems), recombinant human IGF-2, rat IGF-1, rat IGF-2 (Gropep) and recombinant human insulin (Roche) is performed by ELISA using the same procedure as above, but with a 1 μg/ml coating dilution.

human IGF-2 = molecular target: T2, human IGF-2 (Homo sapiens, UniProt P01344); assay: ELISA binding titration of IgG1 antibodies; settings: FIG. 1B
T2 construct: insulin-like growth factor-2 (IGF-2; a 67 amino-acid polypeptide)
Experimental: as §1, §2

murine IGF-1 = molecular target: T3, murine IGF-1 (Mus musculus, UniProt P05017); assay: ELISA binding titration of IgG1 antibodies; settings: FIG. 1C
T3 construct: Insulin-like growth factor-1 (IGF-1; a 70 amino-acid polypeptide); purchased R&D Systems
Experimental: as §1, §2

murine IGF-2 = molecular target: T4, murine IGF-2 (Mus musculus, UniProt P09535); assay: ELISA binding titration of IgG1 antibodies; settings: FIG. 1D
T4 construct: insulin-like growth factor-2 (IGF-2; a 67 amino-acid polypeptide); purchased R&D Systems
Experimental: as §1, §2

rat IGF-1 = molecular target: T5, rat IGF-1 (Rattus norvegicus, UniProt P08025); assay: ELISA binding titration of IgG1 antibodies; settings: FIG. 1E
T5 construct: Insulin-like growth factor-1 (IGF-1; a 70 amino-acid polypeptide)
T5 sequence (P08025 49-118 limits assumed): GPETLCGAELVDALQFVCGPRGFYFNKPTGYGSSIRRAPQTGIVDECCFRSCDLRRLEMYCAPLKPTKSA
Experimental: as §1, §2

rat IGF-2 = molecular target: T6, rat IGF-2 (Rattus norvegicus, UniProt P01346); assay: ELISA binding titration of IgG1 antibodies; settings: FIG. 1F
T6 construct: insulin-like growth factor-2 (IGF-2; a 67 amino-acid polypeptide)
T6 sequence (P01346 25-91 limits assumed): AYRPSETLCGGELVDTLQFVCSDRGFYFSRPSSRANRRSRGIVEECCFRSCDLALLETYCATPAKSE
Experimental: as §1, §2

[4] = molecular target: T7, biotinylated-IGF-1 binding to coated insulin-like growth factor-1 receptor (Homo sapiens, UniProt P05019); assay: ELISA neutralization of biotinylated IGF-1 binding to coated IGF-1R
T7 construct: Insulin-like growth factor-1 (IGF-1; a 70 amino-acid polypeptide); purchased R&D Systems (IGF-1R)
Experimental: To identify IGF antibodies that neutralize the ability of IGF-1 and IGF-2 to bind to the IGF-1R, an ELISA is established by coating plates with 1.5 μg/ml recombinant human IGF-1R (R&D Systems) which allows the binding of biotinylated IGF-1 and biotinylated IGF-2. Bound IGF-1 or IGF-2 is detected using alkaline phosphatase-conjugated streptavidin (1:10,000 dilution) (Roche). The neutralization potency of antibody Fab fragments is measured by adding 0.1-1 μg/ml of Fab to the wells coated with IGF-1R just prior to the addition of biotinylated IGF-1 or IGF-2 ligands. Antibody Fab fragments that block the binding of biotinylated ligand are identified by a reduction in fluorometric signal.

[5] = system: IGF-1 stimulated COLO 205 cell growth; assay: COLO 205 cell growth assay (CellTiter-Glo); assay type: cell-based, human; settings: 10 ng/ml IGF-1; antibody 5 and 30 μg/ml; 5 days; FIG. 3A
Experimental: (§3) The COLO 205 colon cancer-derived cell line (ATCC # CCL-222) is plated in 96-well plates at a cell density of 1000 cells per well in serum-free RPMI medium. 10 ng/ml of either IGF-1 or IGF-2 is added in the presence or absence of a control antibody or antibodies 40183 and 40186 at concentrations of 5 and 30 μg/ml. Cells are cultured for 5 days then the cell number in each well determined using the CellTiter-Glo luminescent cell viability assay (Promega). Luminescence was recorded using a XFluor GENios Pro 4.

[6] = system: IGF-2 stimulated COLO 205 cell growth; assay: COLO 205 cell growth assay (CellTiter-Glo); assay type: cell-based, human; settings: 10 ng/ml IGF-2; antibody 5 and 30 μg/ml; 5 days; FIG. 3B
Experimental: as §3

[7] = system: insulin stimulated COLO 205 cell growth; assay: COLO 205 cell growth assay (CellTiter-Glo); assay type: cell-based, human; settings: FIG. 3C

Molecule: O=c1[nH]cc(F)c(=O)[nH]1 [5FU, 5-fluorouracil, reference compound]
- decrease in median tumour growth [1]: 30%

Molecule: bevacizumab
- terminal half-life [2]: 206 ± 9.12 h
- terminal half life [3]: approximately 20 days

B1: antibody 40183: fully human IgG1/Igλ anti-IGF antibody; variable heavy SEQ ID NO:18, variable light SEQ ID NO:20; constant regions as 40186 (antibody, listed as Homo sapiens, V domains shown)
VH: QVELVESGGGLVQPGGSLRLSCAASGFTWSSFAMSWVRQAPGKGLEWVSYISYLGSYTGYADSVKGRFTISRDNSKNTLYLQMNSLRAEDTAVYYCARGTKFDYWGQGTLVTVSS
VL: DIVLTQPPSVSGAPGQRVTISCTGSSSNIGTYDVHWYQQLPGTAPKLLIYSNSKRPSGVPDRFSGSKSGTSASLAITGLQSEDEADYYCSITRVFGGGTKLTVLG
modifications: IgG1/lambda constant regions
notes: fully human IgG1/Igλ anti-IGF antibody; constant regions as 40186
- binding to human IGF-1 (ELISA) (human IGF-1): concentration dependent binding
- binding to human IGF-2 (ELISA) (human IGF-2): concentration dependent binding
- binding to murine IGF-1 (ELISA) (murine IGF-1): concentration dependent binding
- binding to murine IGF-2 (ELISA) (murine IGF-2): concentration dependent binding
- binding to rat IGF-1 (ELISA) (rat IGF-1): concentration dependent binding
- binding to rat IGF-2 (ELISA) (rat IGF-2): concentration dependent binding
- IC50, inhibition of IGF-1 ligand binding to IGF-1R ([4]; FIG. 2): approximately 5 ng/ml
- IC50 ([4]; FIG. 2, read-out: IC50, inhibition of IGF-1 ligand binding to IGF-1R): ~0.03 nM
- effect on IGF-1 induced COLO 205 cell growth [5]: dose dependent inhibition
- effect on IGF-2 induced COLO 205 cell growth [6]: dose dependent inhibition
- effect on insulin induced COLO 205 cell growth [7]: no effect

Reference: patent US8580254B2, “Anti-IGF antibodies” (Boehringer Ingelheim International GmbH, priority 2007, dated 2013)
